Laboratory results as given in paper PMC8956657 (Nature Communications, 2022).
Where no end group is shown, it is not given here.

What was measured:
Assay in all cases: fluorescence polarisation
Conditions in all cases: both partners purified
[1] = molecular target: T1, IMPα7 lacking the IBB domain (residues 73-536) (UniProt O60684 73-536)
T1 construct: also called ΔIBB-IMPα7; importin alpha 7

[2] = molecular target: IMPα1 lacking the IBB domain (residues 70-529) (UniProt P52292 70-529)
[3] = molecular target: T2, IMPα5 lacking the IBB domain (residues 73-538) (UniProt P52294 73-538)
T2 construct: also called ΔIBB-IMPα5; importin alpha 5
T2 sequence (P52294 73-538): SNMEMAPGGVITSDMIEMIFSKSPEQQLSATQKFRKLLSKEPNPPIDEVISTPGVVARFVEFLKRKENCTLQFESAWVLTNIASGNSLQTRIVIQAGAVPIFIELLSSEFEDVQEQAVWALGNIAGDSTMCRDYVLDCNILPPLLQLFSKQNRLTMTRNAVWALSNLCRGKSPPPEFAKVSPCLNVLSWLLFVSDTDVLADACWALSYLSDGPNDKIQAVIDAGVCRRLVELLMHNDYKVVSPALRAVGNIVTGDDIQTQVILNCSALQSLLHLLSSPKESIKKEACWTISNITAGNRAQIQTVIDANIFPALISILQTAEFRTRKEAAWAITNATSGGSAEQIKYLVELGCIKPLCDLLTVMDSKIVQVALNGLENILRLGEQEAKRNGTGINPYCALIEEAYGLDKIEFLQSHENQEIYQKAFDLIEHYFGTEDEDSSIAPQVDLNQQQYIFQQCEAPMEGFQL

[4] = molecular target: T3, IMPα3 lacking the IBB domain (residues 64-521) (UniProt O00629 64-521)
T3 construct: also called ΔIBB-IMPα3; KPNA4
T3 sequence (looked up): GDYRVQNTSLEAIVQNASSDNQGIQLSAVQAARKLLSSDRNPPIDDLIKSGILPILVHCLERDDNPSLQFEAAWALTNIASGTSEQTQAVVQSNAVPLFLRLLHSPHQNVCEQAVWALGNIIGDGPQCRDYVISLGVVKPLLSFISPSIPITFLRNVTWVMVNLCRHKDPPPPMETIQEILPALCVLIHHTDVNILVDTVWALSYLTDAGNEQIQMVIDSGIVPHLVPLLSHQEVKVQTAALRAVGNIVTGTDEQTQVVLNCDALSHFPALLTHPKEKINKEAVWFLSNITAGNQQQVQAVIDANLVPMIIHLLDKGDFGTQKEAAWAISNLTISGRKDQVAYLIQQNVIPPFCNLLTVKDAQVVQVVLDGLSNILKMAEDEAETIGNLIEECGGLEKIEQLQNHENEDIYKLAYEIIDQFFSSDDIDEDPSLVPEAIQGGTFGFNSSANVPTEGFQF

T1 sequence (O60684 73-536): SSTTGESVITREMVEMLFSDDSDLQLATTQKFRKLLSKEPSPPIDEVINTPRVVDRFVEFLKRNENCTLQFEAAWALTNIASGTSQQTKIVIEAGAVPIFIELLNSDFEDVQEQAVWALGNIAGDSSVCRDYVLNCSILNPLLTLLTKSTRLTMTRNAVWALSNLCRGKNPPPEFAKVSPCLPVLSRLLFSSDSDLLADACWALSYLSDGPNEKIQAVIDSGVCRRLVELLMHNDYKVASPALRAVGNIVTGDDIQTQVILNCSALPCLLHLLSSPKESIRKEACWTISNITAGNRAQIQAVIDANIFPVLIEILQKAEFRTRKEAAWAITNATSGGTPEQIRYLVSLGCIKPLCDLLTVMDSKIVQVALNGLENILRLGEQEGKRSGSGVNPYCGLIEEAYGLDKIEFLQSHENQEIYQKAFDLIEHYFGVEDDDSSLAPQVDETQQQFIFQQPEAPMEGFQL

In the case of RKARKRSHSPTKKLRYVKRRF (also: FITC-tagged) [FITC-tagged MERS-CoV ORF4b NLS peptide (residues 19-39), wild type], the Kd [1] is reported as 1.9 nM, the Kd [2] is reported as 2.5 nM and the binding result [3] is reported as “binds”. For the same binder, the Kd [4] was 1.4 nM.
